Measured values from patent publication EP2138508A1 (Helmholtz-Zentrum für Infektionsforschung GmbH, dated 2009).

Key:
[1] = target: Met receptor on MDCK cells (UniProt Q75ZY9 25-1382); assay: cell-based or functional assay
[2] = target: Met receptor on MK keratinocytes (mouse, UniProt P16056 25-1379); assay: cell-based or functional assay

B1: InIB321_Crys (InIB321 G206C A227C C242A, "crystal dimer") (ligand)
chain: ETITVPTPIKQIFSDDAFAETIKDNLKKKSVTDAVTQNELNSIDQIIANNSDIKSVQGIQYLPNVTKLFLNGNKLTDIKPLANLKNLGWLFLDENKVKDLSSLKDLKKLKSLSLEHNGISDINGLVHLPQLESLYLGNNKITDITVLSRLTKLDTLSLEDNQISDIVPLACLTKLQNLYLSKNHISDLRALCGLKNLDVLELFSQEALNKPINHQSNLVVPNTVKNTDGSLVTPEIISDDGDYEKPNVKWHLPEFTNEVSFIFYQPVTIGKAKARFHGRVTQPLKE
modifications: two intermolecular disulfides: Cys 206 of chain A with Cys 227 of chain B and vice versa
For B1, the “cell scattering of MDCK cells, potency relative to HGF and InIBfl” value [1] was ~2 orders of magnitude and the “stimulation of DNA synthesis in MK keratinocytes, activity relative to full-length InIB” value [2] was ~10 fold.
